Laboratory results: patent US20180312578A1 (Ablynx, published 2018)

B1: Reference C (SEQ ID NO: 3) (VHH)
VHH: EVQLLESGGGLVQPGGSLRLSCAASGFTFDTSSMLWVRQAPGKGLEWVSVIHQSGTPTYYADSVKGRFTISRDNSKNTLYLQMNSLRAEDTAVYYCAKFPSSRMKFDYWGQGTLVTVSS
notes: Heavy-chain immunoglobulin single variable domain (VH-derived domain antibody); Captured on human serum albumin; also called DOM7r-92-100
B2: Reference D (SEQ ID NO: 4) (VHH)
VHH: EVQLLESGGGLVQPGGSLRLSCAASGFTFDTSSMLWVRQAPGKGLEWVSVIHQSGTPTYYADSVKGRFTISRDNSKNTLYLQMNSLRAEDTAVYYCAKFPSSRMKFDYWGQGTLVTVSS
notes: Captured on human serum albumin; also called DOM7r-92-104
B3: Reference D+L11V+V89L (SEQ ID NO: 93) (VHH)
VHH: EVQLLESGGGVVQPGGSLRLSCAASGFTFDTSSMLWVRQAPGKGLEWVSVIHQSGTPTYYADSVKGRFTISRDNSKNTLYLQMNSLRAEDTALYYCAKFPSSRMKFDYWGQGTLVTVSS
B4: Reference D+L11V+V89L+T110K (SEQ ID NO: 94) (VHH)
VHH: EVQLLESGGGVVQPGGSLRLSCAASGFTFDTSSMLWVRQAPGKGLEWVSVIHQSGTPTYYADSVKGRFTISRDNSKNTLYLQMNSLRAEDTALYYCAKFPSSRMKFDYWGQGTLVKVSS

Biological target: T1, human serum albumin (human, UniProt P02768 25-609)
T1 construct: also called HSA
Test: ProteOn SPR, capture on immobilised HSA
Description: In case of binding of pre-existing antibodies on Nanobodies captured on human serum albumin (HSA) was evaluated using the ProteOn XPR36 (Bio-Rad Laboratories, Inc.). PBS/Tween (phosphate buffered saline, pH7.4, 0.005% Tween20) was used as running buffer and the experiments were performed at 25° C. The ligand lanes of a ProteOn GLC Sensor Chip were activated with EDC/NHS (flow rate 30 μl/min) and HSA was injected at 10 μg/ml in ProteOn Acetate buffer pH4.5 (flow rate 100 μl/min) to render immobilization levels of approximately 3200 RU. After immobilization, surfaces were deactivated with ethanolamine HCl (flow rate 30 μl/min). Nanobodies were injected for 2 minutes at 45 μl/min over the HSA surface to render a Nanobody capture level of approximately 200 RU. The samples containing pre-existing antibodies were centrifuged for 2 minutes at 14,000 rpm and supernatant was diluted 1:10 in PBS-Tween20 (0.005%) before being injected for 2 minutes at 45 μl/min followed by a subsequent 400 seconds dissociation step. After each cycle (i.e. before a new Nanobody capture and blood sample injection step) the HSA surfaces were regenerated with a 2 minute injection of HCl (100 mM) at 45 μl/min. Sensorgram processing and data analysis was performed with ProteOn Manager 3.1.0 (Bio-Rad Laboratories, Inc.). Sensorgrams showing pre-existing antibody binding were obtained after double referencing by subtracting 1) Nanobody-HSA dissociation and 2) non-specific binding to reference ligand lane.

Binding result, binds:
B1
B2
B3
B4
